Legend:
[1] = target: A2AR-Nluc-spacer (human adenosine A2A receptor fused to NanoLuc on the N-terminal end, with spacer) (human, UniProt P29274 1-412); assay: cell-based or functional assay
[2] = target: A2AR (human adenosine A2A receptor, non-fused) (human, UniProt P29274 1-412); assay: cell-based or functional assay
Sequence of A2AR (human adenosine A2A receptor, non-fused) (P29274 whole entry, the tested form may be a part): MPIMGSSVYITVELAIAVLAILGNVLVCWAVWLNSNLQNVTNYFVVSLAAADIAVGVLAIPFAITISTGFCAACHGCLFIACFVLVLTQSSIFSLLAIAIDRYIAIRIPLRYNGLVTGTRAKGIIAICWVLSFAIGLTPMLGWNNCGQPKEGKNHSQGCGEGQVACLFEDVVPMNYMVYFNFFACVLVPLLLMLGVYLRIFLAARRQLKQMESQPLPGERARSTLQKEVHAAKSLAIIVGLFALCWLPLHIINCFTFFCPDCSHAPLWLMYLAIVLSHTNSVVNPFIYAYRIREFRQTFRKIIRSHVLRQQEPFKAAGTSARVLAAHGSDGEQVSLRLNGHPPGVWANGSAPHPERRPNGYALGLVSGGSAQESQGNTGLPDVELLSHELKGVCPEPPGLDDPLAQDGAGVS

Sequence of A2AR-Nluc-spacer (human adenosine A2A receptor fused to NanoLuc on the N-terminal end, with spacer) (P29274 whole entry, the tested form may be a part): as above

- EC50: concentration of ADA (0.1 ng/ml to 10 ug/ml) providing half-maximal increase in binding of 2.2 nM [3H]ZM 241385 to membranes of transfected HEK-293T cells [1]: 14 ng/mL
- EC50: concentration of ADA (0.1 ng/ml to 10 ug/ml) providing half-maximal increase in binding of 2.2 nM [3H]ZM 241385 to membranes of transfected HEK-293T cells [2]: 4 ng/mL
B1: Bovine adenosine deaminase (ADA) (enzyme, UniProt P56658 1-363, looked up)
chain: MAQTPAFNKPKVELHVHLDGAIKPETILYYGRKRGIALPADTPEELQNIIGMDKPLSLPEFLAKFDYYMPAIAGCREAVKRIAYEFVEMKAKDGVVYVEVRYSPHLLANSKVEPIPWNQAEGDLTPDEVVSLVNQGLQEGERDFGVKVRSILCCMRHQPSWSSEVVELCKKYREQTVVAIDLAGDETIEGSSLFPGHVKAYAEAVKSGVHRTVHAGEVGSANVVKEAVDTLKTERLGHGYHTLEDATLYNRLRQENMHFEVCPWSSYLTGAWKPDTEHPVVRFKNDQVNYSLNTDDPLIFKSTLDTDYQMTKNEMGFTEEEFKRLNINAAKSSFLPEDEKKELLDLLYKAYGMPSPASAEQCL

From publication PMC5818423, “Molecular Evidence of Adenosine Deaminase Linking Adenosine A2A Receptor and CD26 Proteins” (Frontiers in Pharmacology, 2018)
